Source: US20150152192A1 (SAMSUNG ELECTRONICS, published 2015)
Positions count from the first letter of the chain named.

T1: Ang2 with N467 mutated with alanine, tagged with FLAG (human, UniProt O15123 19-496, limits assumed)
T1 sequence: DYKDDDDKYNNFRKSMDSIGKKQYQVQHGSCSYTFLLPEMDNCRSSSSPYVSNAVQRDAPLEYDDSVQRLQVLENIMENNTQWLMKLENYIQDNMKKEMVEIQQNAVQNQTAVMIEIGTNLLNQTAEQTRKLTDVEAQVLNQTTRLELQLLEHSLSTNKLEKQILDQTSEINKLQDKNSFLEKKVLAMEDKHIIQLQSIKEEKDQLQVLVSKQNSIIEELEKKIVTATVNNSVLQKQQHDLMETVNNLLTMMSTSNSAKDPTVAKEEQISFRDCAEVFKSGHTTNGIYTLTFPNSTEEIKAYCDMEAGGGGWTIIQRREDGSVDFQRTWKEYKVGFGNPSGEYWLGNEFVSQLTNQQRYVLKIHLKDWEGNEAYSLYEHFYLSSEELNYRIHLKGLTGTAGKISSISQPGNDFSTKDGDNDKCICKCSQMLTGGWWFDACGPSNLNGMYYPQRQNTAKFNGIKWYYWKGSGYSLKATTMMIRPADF

T2: Ang2 with I434 mutated with alanine, tagged with FLAG (human, UniProt O15123 19-496, limits assumed)
T2 sequence: T1 sequence with I424A, A457N

B1: SAIT-ANG-2-AB-2-E6 (scFv form) (scFv, V domains shown)
VH: EVQLLESGGGLVQTGGSLRLSCAASGFTFSDYAMSWVRQAPGKGLEWVSAIYPDSGNKYYADSVKGRFTISRDNSKNTLYLQMNSLRAEDTAVYYCARHSSDPKVKSGYYDDGMDVWGQGTLVAVSS
VL: QSVLTQPPSASGTPGQRVTISCSGSSSNIGNNAVNWYQQLPGTAPKLLIYADSNRPSGVPDRFSGSKSGTSASLAISGLRSEDEADYYCGSWDYSLSGYVFGGGTKLTVLG
notes: scFv from a phage display library, partly purified from E. coli periplasm on Ni-NTA and detected with anti-HA
B2: SAIT-ANG-2-AB-7-C9 (scFv form) (scFv, V domains shown)
VH: EVQLLESGGGLVQPGGSLRLSCAASGFTFSNYAMSWVRQAPGKGLEWVSAISSGGGNIYYADSVKGRFTISRDNSKNTLYLQMNSLRAEDTAVYYCAKSGIQPSPPSMSSAYAMDVWGQGTLVTVSS
VL: B1 VL with A33D, N35Y, D52N, N54H, S91T
notes: scFv from a phage display library
B3: SAIT-ANG-2-AB-3-D3 (scFv form) (scFv, V domains shown)
VH: EVQLLESGGGLVQPGGSLRLSCAASGFTFSDYDMSWVRQAPGKGLEWVSGISSDDGNTYYADSVKGRFTISRDNSKNTLYLQMNSLRAEDTAVYYCARPTIDKYTLRGYYSYGMDVWGQGTLVTVSS
VL: B1 VL with S23T, N31S, A33Y, N35S, A51S, S53N, N54K, S91T, Y94D, S97N
notes: as for B2
B4: SAIT-ANG-2-AB-4-C11 (scFv form) (scFv, V domains shown)
VH: EVQLLESGGGLVQPGGSLRLSCAASGFTFSDYAMSWVRQAPGKGLEWVSSIYPDDGNTYYADSVKGRFTISRDNSKNTLYLQMNSLRAEDTAVYYCARHTSHHTSIDGYYYYGMDGWGQGTLVTVSS
VL: B1 VL with S23T, A33D, N35S, A51S, N54K
notes: as for B2
B5: SAIT-ANG-2-AB-4-F5 (scFv form) (scFv, V domains shown)
VH: EVQLLESGGGLVQPGGSLRLSCAASGFTFSDYDMSWVRQAPGKGLEWVSSISHGDSNKYYADSVKGRFTISRDNSKNTLYLQMNSLRAEDTAVYYCAKSSGIQESPPTYYYYGMDVWGQGTLVTVSS
VL: B1 VL with N31S
notes: as for B2
B6: SAIT-ANG-2-AB-8-A5 (scFv form) (scFv, V domains shown)
VH: EVQLLESGGGLVQPGGSLRLSCAASGFTFSDYYMSWVRQAPGKGLEWVSGIYPSGGSTYYADSVKGRFTISRDNSKNTLYLQMNSLRAEDTAVYYCARDPSTLTYAGFDYWGQGTLVTVSS
VL: B1 VL with A33Y, N35T, N54H, G90A, S91T
notes: as for B2
B7: SAIT-ANG-2-AB-4-F11 (scFv form) (scFv, V domains shown)
VH: EVQLLESGGGLVQTGGSLRLSCAASGFTFSDYAMSWVRQAPGKGLEWVSSIYPDDGNTYYADSVKGRFTISRDNSKNTLYLQMNSLRAEDTAVYYCAKHPVRLNLHPMYYYYGMDVWGQGTLVTVSS
VL: B1 VL with S23T, N35S, A51S, N54Q, G90A, S91T, G98A
notes: as for B2

Legend:
[1] = target: T1, Ang2 with N467 mutated with alanine, …; experiment: ELISA, scFv coated, 250 ng FLAG-tagged Ang2 mutant, anti-FLAG-HRP
Description: (§1) A 96-well MaxiSorp™ flat-bottom plate (Nunc) was coated with 50 μl of the anti-Ang2 scFv selected above. After that, the plate was washed five times with 0.05% (v/v) Tween-20-containing PBS and then blocked with 1% (v/v) BSA-containing PBS at a room temperature for 2 hours. […] Thereafter, the plate was washed five times with 0.05% Tween-20-containing PBS and then, an HRP-conjugated anti-FLAG antibody (SIGMA) diluted in 1% (v/v) BSA-containing PBS at 1:5,000 ratio (v/v) was added in the amount of 50 μl to each well to react at a room temperature for 1 hour, followed by washing five times with 0.1% (v/v) Tween-20-containing PBS.
(§2) Finally, 100 μl of TMB substrate (cell signal) was added to each well of the plate to induce color development and then, the reaction was ceased by the addition of 50 μl of 5N H₂SO₄ solution and OD450 values were measured on a plate reader (Molecular Devices).

[2] = target: T2, Ang2 with I434 mutated with alanine, …; experiment: as above
Description: as §1, §2

Binder | Relative binding (%) with Mutant Ang2 compared to the binding with native Ang2 [1] | Relative binding (%) with Mutant Ang2 compared to the binding with native Ang2 [2]
B1 | 72.1% | 5.3%
B2 | 86.6% | 8.7%
B3 | 90.9% | 93.4%
B4 | 81.7% | 7.2%
B5 | 11.3% | 68.6%
B6 | 90.7% | 4%
B7 | 92% | 69%
